In publication PMC2868900:

These substances were tested against thymidylate synthase (TS) (zebrafish) (UniProt A0ACM8Q3Q5) (assay: competition EMSA). Settings: 37 C, 10 min; 100 ng TS (200 ng in Fig. 5B legend), 1 ng 32P TS mRNA; non-denaturing 5% acrylamide gel (60:1); binding buffer, salt and pH not given (cited ref.).
Chain of thymidylate synthase (TS) (zebrafish) (A0ACM8Q3Q5 entry or part of it): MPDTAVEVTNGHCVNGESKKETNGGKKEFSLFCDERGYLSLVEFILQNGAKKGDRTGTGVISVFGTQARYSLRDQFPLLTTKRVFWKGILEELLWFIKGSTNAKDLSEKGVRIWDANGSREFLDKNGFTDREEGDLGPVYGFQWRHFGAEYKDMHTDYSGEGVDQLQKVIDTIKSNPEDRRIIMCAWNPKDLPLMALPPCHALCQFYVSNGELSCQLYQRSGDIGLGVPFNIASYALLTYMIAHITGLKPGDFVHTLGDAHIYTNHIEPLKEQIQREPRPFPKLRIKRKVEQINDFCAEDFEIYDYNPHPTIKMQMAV
In the case of TS1-290, the IC50 is reported as 0.48 nM. TS581-1163 showed an IC50 of over 1000 nM. TS73-145 was tested, and the IC50 was over 1000 nM. Substance TS37-74 (TS37-72 in Methods) has an IC50 of over 1000 nM. Substance TS1-72 has an IC50 of 0.65 nM. TS1-580 gave an IC50 of 0.48 nM. For TS1-145, the IC50 was 0.52 nM. TS1-36 showed an IC50 of 0.6 nM. With full-length TS mRNA (TS1-1163) the IC50 was 0.5 nM. TS291-580 gave an IC50 of over 1000 nM. With TS146-290 the IC50 was over 1000 nM.

Same assay, conditions: vs 32P full-length TS mRNA; 100-fold excess also did not compete (Fig. 3); 37 C, 10 min; 100 ng TS (200 ng in Fig. 5B legend), 1 ng 32P TS mRNA; non-denaturing 5% acrylamide gel (60:1); binding buffer, salt and pH not given (cited ref.)
In the case of luciferase mRNA, the IC50 is reported as over 1000 nM.
